In paper PMC3627603 (Nucleic Acids Research, 2013):

T1: H6-Mcm10 full length (FL), recombinant (human, UniProt Q7L590-2 1-874)
T1 sequence (looked up): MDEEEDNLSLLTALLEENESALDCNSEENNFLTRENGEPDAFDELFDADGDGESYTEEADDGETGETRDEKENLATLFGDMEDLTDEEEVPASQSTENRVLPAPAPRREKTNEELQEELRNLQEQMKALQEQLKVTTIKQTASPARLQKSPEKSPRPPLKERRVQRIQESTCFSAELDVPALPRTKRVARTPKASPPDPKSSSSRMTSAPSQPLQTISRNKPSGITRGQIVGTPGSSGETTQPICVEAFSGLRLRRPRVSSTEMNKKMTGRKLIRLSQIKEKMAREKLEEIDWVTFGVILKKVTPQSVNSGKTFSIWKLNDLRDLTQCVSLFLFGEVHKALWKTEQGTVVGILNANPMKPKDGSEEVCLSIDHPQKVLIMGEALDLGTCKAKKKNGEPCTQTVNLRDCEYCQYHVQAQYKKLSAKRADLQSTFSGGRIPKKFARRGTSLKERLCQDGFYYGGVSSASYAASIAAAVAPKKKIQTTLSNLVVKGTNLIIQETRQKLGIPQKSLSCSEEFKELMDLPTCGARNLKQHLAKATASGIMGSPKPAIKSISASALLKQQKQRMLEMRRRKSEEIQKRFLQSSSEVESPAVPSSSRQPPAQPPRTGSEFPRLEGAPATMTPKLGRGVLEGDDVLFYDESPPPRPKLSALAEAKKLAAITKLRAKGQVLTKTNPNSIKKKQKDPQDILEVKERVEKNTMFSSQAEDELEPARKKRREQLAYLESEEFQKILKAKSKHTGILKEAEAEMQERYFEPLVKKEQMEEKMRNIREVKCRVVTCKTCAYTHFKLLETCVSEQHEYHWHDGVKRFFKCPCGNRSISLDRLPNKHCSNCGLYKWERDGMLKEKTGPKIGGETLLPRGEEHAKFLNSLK

B1: GST-SIRT1 (enzyme, human, UniProt Q96EB6 1-747, looked up)
chain: MADEAALALQPGGSPSAAGADREAASSPAGEPLRKRPRRDGPGLERSPGEPGGAAPEREVPAAARGCPGAAAAALWREAEAEAAAAGGEQEAQATAAAGEGDNGPGLQGPSREPPLADNLYDEDDDDEGEEEEEAAAAAIGYRDNLLFGDEIITNGFHSCESDEEDRASHASSSDWTPRPRIGPYTFVQQHLMIGTDPRTILKDLLPETIPPPELDDMTLWQIVINILSEPPKRKKRKDINTIEDAVKLLQECKKIIVLTGAGVSVSCGIPDFRSRDGIYARLAVDFPDLPDPQAMFDIEYFRKDPRPFFKFAKEIYPGQFQPSLCHKFIALSDKEGKLLRNYTQNIDTLEQVAGIQRIIQCHGSFATASCLICKYKVDCEAVRGDIFNQVVPRCPRCPADEPLAIMKPEIVFFGENLPEQFHRAMKYDKDEVDLLIVIGSSLKVRPVALIPSSIPHEVPQILINREPLPHLHFDVELLGDCDVIINELCHRLGGEYAKLCCNPVKLSEITEKPPRTQKELAYLSELPPTPLHVSEDSSSPERTSPPDSSVIVTLLDQAAKSNDDLDVSESKGCMEEKPQEVQTSRNVESIAEQMENPDLKNVGSSTGEKNERTSVAGTVRKCWPNRVAKEQISRRLDGNQYLFLPPNRYIFHGAEVYSDSEDDVLSSSSCGSNSDSGTCQSPSLEEPMEDESEIEEFYNGLEDEPDVPERAGGAGFGTDGDDQEAINEAISVKQEVTDMNYPSNKS

Tests used:
[1] = biological target: T1, H6-Mcm10 full length (FL), recombinant; assay: pull-down
GST-SIRT1 = biological target: B1; assay: pull-down

Row | binding result [1] | binding result (GST-SIRT1) | Binder
1 | binds |  | B1
2 |  | binds | His-tagged Mcm10 C-terminal domain (CTD, aa 630-874) (domain or fragment, human, UniProt Q7L590-2 630-874, looked up) GVLEGDDVLFYDESPPPRPKLSALAEAKKLAAITKLRAKGQVLTKTNPNSIKKKQKDPQDILEVKERVEKNTMFSSQAEDELEPARKKRREQLAYLESEEFQKILKAKSKHTGILKEAEAEMQERYFEPLVKKEQMEEKMRNIREVKCRVVTCKTCAYTHFKLLETCVSEQHEYHWHDGVKRFFKCPCGNRSISLDRLPNKHCSNCGLYKWERDGMLKEKTGPKIGGETLLPRGEEHAKFLNSLK
